# Like-named read-outs stand apart in the source and are kept apart here.
# T1: monkey PD-1 with mFc (monkey)
# T1 construct: also called monkey PD-1-mFc; monkey PD-1 dimer
# T1 chain: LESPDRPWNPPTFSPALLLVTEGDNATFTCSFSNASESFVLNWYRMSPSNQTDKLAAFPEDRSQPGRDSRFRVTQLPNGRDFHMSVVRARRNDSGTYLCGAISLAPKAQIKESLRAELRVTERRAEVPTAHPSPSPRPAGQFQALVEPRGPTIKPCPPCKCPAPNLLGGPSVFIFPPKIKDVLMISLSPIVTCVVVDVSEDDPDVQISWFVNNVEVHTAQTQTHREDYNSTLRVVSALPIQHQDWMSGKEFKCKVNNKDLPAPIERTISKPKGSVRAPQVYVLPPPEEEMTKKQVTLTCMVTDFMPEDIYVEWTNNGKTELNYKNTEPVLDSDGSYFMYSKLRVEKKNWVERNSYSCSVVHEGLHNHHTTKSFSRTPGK
# T2: recombinant cynomolgus monkey PD-1 expressed with a C-terminal myc-myc-hexahistidine tag (cynomolgus monkey (Macaca fascicularis))
# T2 construct: Monomeric reagent; also called MfPD-1-MMH
# T2 chain: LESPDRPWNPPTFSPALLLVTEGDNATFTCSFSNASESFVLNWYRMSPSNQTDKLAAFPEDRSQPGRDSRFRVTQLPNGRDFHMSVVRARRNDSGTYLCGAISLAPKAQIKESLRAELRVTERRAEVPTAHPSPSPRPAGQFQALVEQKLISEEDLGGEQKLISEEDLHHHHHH
# Assays:
# [1] = target: T3, full length human PD-1 on HEK293/hPD-1 cells (human, UniProt Q15116 25-288); assay: FACS, 100 nM mAb, HEK293/hPD-1 cells;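 note: antibodies incubated with cells for 15-30 min on ice, bound antibody detected through a secondary F(ab′)2 by flow cytometry, with parental HEK293 cells tested in parallel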
# T3 sequence (Q15116 25-288 limits assumed): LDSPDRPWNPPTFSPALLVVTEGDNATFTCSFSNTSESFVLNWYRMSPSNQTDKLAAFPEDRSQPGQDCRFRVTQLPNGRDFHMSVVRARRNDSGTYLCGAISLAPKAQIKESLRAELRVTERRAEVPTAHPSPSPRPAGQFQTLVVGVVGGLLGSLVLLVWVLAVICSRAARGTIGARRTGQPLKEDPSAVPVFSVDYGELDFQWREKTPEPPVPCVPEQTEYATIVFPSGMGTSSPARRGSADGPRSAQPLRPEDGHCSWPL
# Procedure: (§1) For the assay, adherent cells were detached using trypsin or enzyme-free dissociation buffer and blocked with complete medium. Cells were centrifuged and resuspended at a concentration of 2.5-6×10̂6 cells/mL in cold PBS containing 2% FBS. HEK293 parental and HEK293/hPD-1 cells were then incubated for 15-30min on ice with 100 nM of each anti-PD-1 antibody. […] Cells were washed with D-PBS containing 2% FBS to remove unbound secondary F(ab′)2 and fluorescence measurements were acquired using either a HyperCyte (IntelliCyt, Inc.) flow cytometer or an Accuri flow cytometer (BD Biosciences). Data was analyzed using FlowJo software (Tree Star).
# [2] = target: T4, PD-1 chimera: extracellular domain of human PD-1 with trans-membrane and cytoplasmic domains of human CD300a, … (human, UniProt Q9UGN4 181-299, limits assumed); assay: cell-based or functional assay
# T4 sequence (Q9UGN4 other isoform, or with tags, fused parts or gaps mutant limits assumed, form in doubt): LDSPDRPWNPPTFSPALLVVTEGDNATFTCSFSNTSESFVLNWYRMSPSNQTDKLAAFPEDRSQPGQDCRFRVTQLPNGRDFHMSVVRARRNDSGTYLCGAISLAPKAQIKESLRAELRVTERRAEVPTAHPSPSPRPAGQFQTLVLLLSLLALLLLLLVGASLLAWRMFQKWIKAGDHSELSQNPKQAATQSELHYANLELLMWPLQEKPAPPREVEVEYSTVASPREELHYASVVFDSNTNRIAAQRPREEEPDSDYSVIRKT
# [3] = target: T3, full length human PD-1 on HEK293/hPD-1 …; assay: FACS, 100 nM mAb
# Procedure: as §1
# [4] = target: T3, full length human PD-1 on HEK293/hPD-1 …; assay: FACS dose response, HEK293/hPD-1 cells; EC50 Inconclusive
# Procedure: (§2) For the assay, adherent cells were detached using trypsin and blocked with complete medium. Cells were centrifuged and resuspended at a concentration of 6×10̂6 cells/mL in staining buffer (1% FBS in PBS). To determine the EC₅₀ and Eₘₐₓ of the anti-PD1 antibodies, 90 uL of cell suspension was incubated for 30 minutes on ice with a serial dilution of anti-PD-1 antibodies and controls diluted to a final concentration ranging from 5 pM to 100 nM (no mAb sample was included as negative control) in staining buffer. Cells were then centrifuged and pellets were washed once with staining buffer to remove unbound antibodies. […] The following day, cells were centrifuged and pellets were washed once with staining buffer, resuspended and filtered. Fluorescence measurements were acquired on Hypercyt® cytometer and analyzed in ForeCyt™ (IntelliCyt; Albuquerque, N. Mex.) to determine the mean fluorescence intensities (MFI). The EC₅₀ values were calculated from a four-parameter logistic equation over an 11-point response curve using GraphPad Prism. Eₘₐₓ for each antibody was defined as the binding at the highest antibody dose (100 nM) tested.
# [5] = target: T5, recombinant human PD-1 dimer expressed with a C-terminal mouse IgG2a Fc tag (human); assay: BLI Octet: 100 nM hPD-1-mFc + 500 nM mAb to captured hPD-L1-hFc
# T5 construct: also called hPD-1-mFc
# Target sequence in this assay (chain, as listed by the source limits assumed): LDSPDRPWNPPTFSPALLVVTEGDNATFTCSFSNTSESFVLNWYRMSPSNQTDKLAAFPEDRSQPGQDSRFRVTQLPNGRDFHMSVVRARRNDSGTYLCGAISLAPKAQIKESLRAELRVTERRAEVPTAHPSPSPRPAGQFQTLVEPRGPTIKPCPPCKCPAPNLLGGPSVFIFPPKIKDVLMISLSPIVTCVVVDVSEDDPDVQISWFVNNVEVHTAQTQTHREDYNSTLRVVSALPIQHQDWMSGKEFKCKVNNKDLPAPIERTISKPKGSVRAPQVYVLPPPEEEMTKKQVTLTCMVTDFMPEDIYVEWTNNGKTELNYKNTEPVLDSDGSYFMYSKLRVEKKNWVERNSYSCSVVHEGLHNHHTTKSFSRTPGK
# Procedure: Inhibition studies for anti-PD-1 monoclonal antibodies expressed with a mouse Fc were performed on an Octet Red 96 instrument. […] The biosensors were washed in Octet HBST buffer in between each step of the experiment. The real-time binding responses were monitored during the entire course of the experiment and the binding response at the end of every step was recorded.
# [6] = target: T6, recombinant human PD-L1 expressed with a C-terminal mouse IgG2a Fc tag (human); assay: SPR Biacore 3000: 500 nM mAb alone (no hPD-1.hFc) over captured hPD-L1.mFc surface, control
# T6 construct: also called hPD-L1-mFc; hPD-L1.mFc
# [7] = target: T3, full length human PD-1 on HEK293/hPD-1 …; assay: FACS dose response, HEK293/hPD-1 cells; No EC50 determined
# Procedure: as §2
# monkey PD-1 with mFc [8] = target: T1, monkey PD-1 with mFc; assay: SPR, captured mAb, 37 C;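 note: Real-time Biacore surface plasmon resonance biosensor readout of PD-1 reagent binding to purified anti-PD-1 monoclonal antibodies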
# Procedure: (§3) Binding association and dissociation rate constants (kₐ and kd, respectively), equilibrium dissociation constants and dissociation half-lives (KD and t_{1/2}, respectively) for antigen binding to purified anti-PD1 antibodies were determined using a real-time surface plasmon resonance biosensor assay on a Biacore 4000 or Biacore T200 instrument. […] Experiments were performed at 25° C. and 37° C. Kinetic association (kₐ) and dissociation (kd) rate constants were determined by processing and fitting the data to a 1:1 binding model using Scrubber 2.0c curve fitting software. Binding dissociation equilibrium constants (KD) and dissociative half-lives (t_{1/2}) were then calculated from the kinetic rate constants as: KD(M)=kd/kₐ and t_{1/2} (min)=[In2/(60*kd)].
# monkey PD-1 with mFc [9] = target: T1, monkey PD-1 with mFc; assay: SPR, captured mAb, 25 C;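 note: purified anti-PD-1 antibodies tested on Biacore 4000 or T200 instruments, rate constants obtained via 1:1 binding model fit, with KD as kd/ka and half-life as ln2/(60·kd)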
# Procedure: as §3
# [10] = target: T7, recombinant human PD-1 expressed with a C-terminal myc-myc-hexahistidine tag (human); assay: SPR (Biacore), mAb captured, hPD-1-MMH injected, 25 C;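 note: rate constants obtained by fitting sensorgrams to a 1:1 binding model, KD derived as kd/ka and half-life as ln2/(60·kd) in minutes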
# T7 construct: also called hPD-1-MMH; human PD-1-MMH
# Procedure: as §3
# [11] = target: T2, recombinant cynomolgus monkey PD-1 …; assay: SPR (Biacore), MfPD-1-MMH, 25 C; end of range tied to H4xH8999P by Table 8
# Procedure: as §3
# [12] = target: T8, recombinant human PD-1 expressed with a C-terminal human IgG1 Fc tag (human); assay: SPR Biacore 3000: 100 nM hPD-1.hFc + 500 nM mAb to captured hPD-L1.mFc;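 note: inhibition study with anti-PD-1 mAbs, SPR responses tracked in real time and read at the close of each step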
# T8 construct: also called hPD-1-hFc; hPD1-hFc
# T8 sequence (chain, as listed by the source limits assumed): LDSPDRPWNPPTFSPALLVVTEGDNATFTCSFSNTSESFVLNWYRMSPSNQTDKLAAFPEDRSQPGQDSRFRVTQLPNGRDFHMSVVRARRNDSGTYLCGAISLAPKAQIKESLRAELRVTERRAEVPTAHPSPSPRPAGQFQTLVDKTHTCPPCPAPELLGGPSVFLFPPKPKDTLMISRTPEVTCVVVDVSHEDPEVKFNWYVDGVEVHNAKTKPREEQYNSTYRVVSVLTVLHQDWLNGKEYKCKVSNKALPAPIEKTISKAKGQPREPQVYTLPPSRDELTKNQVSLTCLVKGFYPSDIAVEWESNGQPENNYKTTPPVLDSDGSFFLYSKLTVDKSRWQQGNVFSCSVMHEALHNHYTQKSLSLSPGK
# Procedure: Next, inhibition studies for anti-PD-1 monoclonal antibodies expressed with human Fc were performed on a Biacore 3000 instrument. […] The real-time binding responses were monitored during the entire course of the experiment and the binding response at the end of every step was recorded.
# [13] = target: T4, PD-1 chimera: extracellular domain of …; assay: cell-based or functional assay; remark: listed apart in the source
# [14] = target: T5, recombinant human PD-1 dimer expressed …; assay: competition ELISA: 1.5 nM hPD-1-mFc to coated hPD-L1-hFc
# Procedure: (§4) Data analysis was performed using a sigmoidal dose-response model within Prism™ software (GraphPad). […] Percent maximum blockade was calculated as a measure of the ability of the antibodies to completely block binding of human PD-1 to human PD-L1 or PD-L2 on the plate as determined from the dose curve.
# monkey PD-1 with mFc [15] = target: T1, monkey PD-1 with mFc; assay: SPR, captured mAb, 37 C; no dissociation observed, kd fixed at 1.00E-05;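 for 100 nM Monkey PD-1-mFc Bound (RU): Real-time Biacore surface plasmon resonance biosensor readout of PD-1 reagent binding to purified anti-PD-1 monoclonal antibodies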;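 for koff: Real-time Biacore surface plasmon resonance biosensor readout of PD-1 reagent binding to purified anti-PD-1 monoclonal antibodies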;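 for kon: Real-time Biacore surface plasmon resonance biosensor readout of PD-1 reagent binding to purified anti-PD-1 monoclonal antibodies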
# Procedure: as §3
# [16] = target: T5, recombinant human PD-1 dimer expressed …; assay: competition ELISA: 100 pM hPD-1-mFc to coated hPD-L2-hFc
# Procedure: as §4
Binder,MFI [1],Emax mean [%] @ 100 nM [2],ratio of MFI HEK293/hPD-1 to HEK293 parental cells [3],Max Geom. Mean MFI @ 100 nM [4],500 nM of anti-PD-1 monoclonal antibody (RU) [6],100 nM Monkey PD-1-mFc Bound (RU) (monkey PD-1 with mFc [8]),Kd (monkey PD-1 with mFc [9]),t1/2 (monkey PD-1 with mFc [9]),binding of the mixture (RU) [12],further results
"H1M7789N (antibody, V domains shown, human variable regions, mouse IgG1 Fc) VH: EVQLLESGGGLVQPGGSLRLSCSASGFTFSSYTMNWVRQAPGKGLEWVSGISDTGGNTYYTDSVKGRFTVSRDNSKNTLSLQMNSLRAEDTAVYYCAKDQGGSYPYYFHYWGQGSLVTVSS VL: DIQMTQSPSSLSASVGDRVTITCRASQSISSYLIWYQQKPGTAPKFLIYAASSLQSGVPSRFSGCGSGTDFTLTISSLQPEDFATYYCQQSYSTPPITFGQGTRLEIK",24200 MFI,135%,92.3,35600 MFI,–,–,–,–,–,% Blocking [5]: 29%; binding of the mixture (nm) [5]: 0.05 nm
"H4xH8999P (antibody, human IgG4, V domains shown, H4xH: modified human IgG4 Fc) VH: QLQLQESGPGLVQPSETLSLTCTVSGDSISSTAYHWDWIRQPPGKGLEWIGTITYNGNTYFNPSLKSRVTISVDTSKNQFSLKLLSMTAAETAVFYCARHLGYNSDFFPFDFWGQGTLVTVSS VL: not shown",–,–,–,–,–,–,–,–,–,Kd [10]: 4.33 nM; t½ [10]: 9.4 min; Kd [11]: 3.09 nM
"H4H9008P (antibody, human IgG4 S228P, kappa, V domains shown, human IgG4 Fc) VH: EVQLVESGGGLVRPGGSLRLSCAASGFTFSTYAMAWVRQTPGKGLEGVSAIGGSGDSTYYVDSVKGRFTISRDNSKSTLFLQMNSLRAEDTAVYYCVKVRNYDGSFDIWGQGTMVTVSS VL: not shown",–,–,–,32200 MFI,-7 RU,–,–,–,-7 RU,% Blocking [12]: 107%; Emax mean [%] @ 100 nM [13]: 150%

# More lines, main results first:
MFI [1],Emax mean [%] @ 100 nM [2],ratio of MFI HEK293/hPD-1 to HEK293 parental cells [3],Max Geom. Mean MFI @ 100 nM [4],500 nM of anti-PD-1 monoclonal antibody (RU) [6],100 nM Monkey PD-1-mFc Bound (RU) (monkey PD-1 with mFc [8]),Kd (monkey PD-1 with mFc [9]),t1/2 (monkey PD-1 with mFc [9]),binding of the mixture (RU) [12],Binder,further results
1940 MFI,102%,6.8,–,-2 RU,6 RU,54.2 nM,4 min,–,"H4H9068P2 (antibody, V domains shown, fully human; H4H prefix (human IgG4 Fc)) VH: EVQLVESGGGLVQRGGSLRLSCAASGFSFSSYAMNWVRQAPGKGLEWVSTISDSGGSTYYADSVKGRFTISRDNSKNTLSLQMNSLRAEDTAVYYCAKDQGGSYPYYFHYWGQGTLVTVSS VL: not shown",Max Geom. Mean MFI @ 100 nM [7]: 639 MFI; Kd (monkey PD-1 with mFc [8]): 86.3 nM; koff (monkey PD-1 with mFc [8]): 0.0105 s⁻¹; kon (monkey PD-1 with mFc [8]): 121000 M⁻¹ s⁻¹; t1/2 (monkey PD-1 with mFc [8]): 1.1 min; 100 nM Monkey PD-1-mFc Bound (RU) (monkey PD-1 with mFc [9]): 17 RU; koff (monkey PD-1 with mFc [9]): 0.00309 s⁻¹; kon (monkey PD-1 with mFc [9]): 57000 M⁻¹ s⁻¹
26200 MFI,–,–,–,0 RU,98 RU,0.48 nM,200 min,1 RU,"H4xH9008P (antibody, V domains shown, human IgG4 Fc with 2 or more amino acid changes (US20100331527)) VH: EVQLVESGGGLVRPGGSLRLSCAASGFTFSTYAMAWVRQTPGKGLEGVSAIGGSGDSTYYVDSVKGRFTISRDNSKSTLFLQMNSLRAEDTAVYYCVKVRNYDGSFDIWGQGTMVTVSS VL: not shown",% blocking at 200 nM antibody [14]: 88%; IC50 [14]: 2.4 nM; Kd (monkey PD-1 with mFc [15]): ≤ 0.049 nM; t1/2 (monkey PD-1 with mFc [15]): ≥ 1160 min; % blocking at 100 nM antibody [16]: 94%
